According to US20110311522A1:
Changes are numbered by the printed parent chain.

Legend:
Experiment in all cases: cell-based or functional assay
[1] = target: hemagglutinin (HA) of H5N1 virus strain IDN6.1 (H5N1 avian influenza virus, strain IDN6.1)
[2] = target: hemagglutinin (HA) of H5N1 virus strain IDN1.1 (H5N1 avian influenza virus, strain IDN1.1)
[3] = target: hemagglutinin (HA) of H5N1 virus strain GD1.1 (H5N1 avian influenza virus, strain GD1.1)
[4] = target: H5 virus strain (fifteen strains of H5N1 viruses)
[5] = target: hemagglutinin (HA) of H5N1 virus strain HN3.1 (H5N1 avian influenza virus, strain HN3.1)
[6] = target: hemagglutinin (HA) of H5N1 virus strain GD4.1 (H5N1 avian influenza virus, strain GD4.1)
[7] = target: hemagglutinin (HA) of H5N1 virus strain Mixed1.1 (H5N1 avian influenza virus, strain Mixed1.1)
[8] = target: hemagglutinin (HA) of H5N1 virus strain VTM1.1 (H5N1 avian influenza virus, strain VTM1.1)
[9] = target: hemagglutinin (HA) of H5N1 virus strain QH1.1 (H5N1 avian influenza virus, strain QH1.1)
[10] = target: hemagglutinin (HA) of H5N1 virus strain VNM2-2.1 (H5N1 avian influenza virus, strain VNM2-2.1)
[11] = target: 14 strains of non-H5 viruses (H1~H13, Chicken NDV)
[12] = target: hemagglutinin (HA) of H5N1 virus strain FJ1.5 (H5N1 avian influenza virus, strain FJ1.5)
[13] = target: hemagglutinin (HA) of H5N1 virus strain IDN3.1 (H5N1 avian influenza virus, strain IDN3.1)
[14] = target: hemagglutinin (HA) of H5N1 virus strain VTM4.1 (H5N1 avian influenza virus, strain VTM4.1)
[15] = target: hemagglutinin (HA) of H5N1 virus strain GD3.1 (H5N1 avian influenza virus, strain GD3.1)
[16] = target: hemagglutinin (HA) of H5N1 virus strain IDN8.1 (H5N1 avian influenza virus, strain IDN8.1)
[17] = target: hemagglutinin (HA) of H5N1 virus strain YN2.1 (H5N1 avian influenza virus, strain YN2.1)
[18] = target: hemagglutinin (HA) of virus strain Ck/HK/Yu22/02 (H5N1) (H5N1 avian influenza virus, strain Ck/HK/Yu22/02)
[19] = target: hemagglutinin (HA) of H5N1 virus strain F2 (H5N1 avian influenza virus, strain F2)
[20] = target: hemagglutinin (HA) of H5N1 virus strain E1 (H5N1 avian influenza virus, strain E1)
[21] = target: hemagglutinin (HA) of H5N1 virus strain A8 (H5N1 avian influenza virus, strain A8)
[22] = target: hemagglutinin (HA) of H5N1 virus strain E2 (H5N1 avian influenza virus, strain E2)
[23] = target: hemagglutinin (HA) of H5N1 virus strain A7 (H5N1 avian influenza virus, strain A7)
[24] = target: hemagglutinin (HA) of H5N1 virus strain C3 (H5N1 avian influenza virus, strain C3)
[25] = target: hemagglutinin (HA) of H5N1 virus strain G1 (H5N1 avian influenza virus, strain G1)
[26] = target: hemagglutinin (HA) of H5N1 virus strain C2 (H5N1 avian influenza virus, strain C2)
[27] = target: hemagglutinin (HA) of H5N1 virus strain D1 (H5N1 avian influenza virus, strain D1)
[28] = target: hemagglutinin (HA) of H5N1 virus strain B4 (H5N1 avian influenza virus, strain B4)
[29] = target: hemagglutinin (HA) of H5N1 virus strain A2 (H5N1 avian influenza virus, strain A2)
[30] = target: hemagglutinin (HA) of H5N1 virus strain F4 (H5N1 avian influenza virus, strain F4)
[31] = target: hemagglutinin (HA) of H5N1 virus strain B7 (H5N1 avian influenza virus, strain B7)
[32] = target: hemagglutinin (HA) of H5N1 virus strain A3 (H5N1 avian influenza virus, strain A3)
[33] = target: hemagglutinin (HA) of H5N1 virus strain A1 (H5N1 avian influenza virus, strain A1)
[34] = target: hemagglutinin (HA) of H5N1 virus strain B8 (H5N1 avian influenza virus, strain B8)
[35] = target: hemagglutinin (HA) of H5N1 virus strain D3 (H5N1 avian influenza virus, strain D3)
[36] = target: hemagglutinin (HA) of H5N1 virus strain A6 (H5N1 avian influenza virus, strain A6)
[37] = target: hemagglutinin (HA) of H5N1 virus strain B3 (H5N1 avian influenza virus, strain B3)
[38] = target: hemagglutinin (HA) of H5N1 virus strain B6 (H5N1 avian influenza virus, strain B6)
[39] = target: hemagglutinin (HA) of H5N1 virus strain F3 (H5N1 avian influenza virus, strain F3)
[40] = target: hemagglutinin (HA) of H5N1 virus strain H2 (H5N1 avian influenza virus, strain H2)
[41] = target: hemagglutinin (HA) of H5N1 virus strain D2 (H5N1 avian influenza virus, strain D2)
[42] = target: hemagglutinin (HA) of H5N1 virus strain B1 (H5N1 avian influenza virus, strain B1)

B1: monoclonal antibody 20A11 (antibody, V domains shown)
VH: QVQLQQSGAELMKPGASVKISCKATGYTFSGHWIEWVKQRPGHGLEWIGEILPGSGNIHYNEKFKGKATFAADTSSNTAYMQLSSLTSEDSAVYYCARLGTTAVERDWYFDVWGQGTSVTVSS
VL: DIVMTQSQKFMSASVGDRVSVTCKASQNVGTHLAWYQQKPGQSPKALIYSASYRYSGVPDRFTGSGSGTDFTLTISNVQSGDLADYFCQQYNNFPLTFGAGTKLEIKR
[1]
  Hamaglutinin inhibition titer: 12800 titer
  Neutralization titer: 12800 titer
[2]
  Hamaglutinin inhibition titer: 12800 titer
  Neutralization titer: 12800 titer
[3]
  Hamaglutinin inhibition titer: 12800 titer
  Neutralization titer: 12800 titer
[4]
  Positive number/total virus number, hemagglutination inhibition assay (of 15 virus strains positive): 15
[5]
  Hamaglutinin inhibition titer: 12800 titer
  Neutralization titer: 6400 titer
[6]
  Hamaglutinin inhibition titer: 12800 titer
  Neutralization titer: 12800 titer
[7]
  Hamaglutinin inhibition titer: 12800 titer
  Neutralization titer: 12800 titer
[8]
  Hamaglutinin inhibition titer: 12800 titer
  Neutralization titer: 12800 titer
[9]
  Hamaglutinin inhibition titer: 12800 titer
  Neutralization titer: 12800 titer
[10]
  Hamaglutinin inhibition titer: 12800 titer
  Neutralization titer: 12800 titer
[11]
  Positive number/total virus number, hemagglutination inhibition assay (of 14 virus strains positive): 0
[12]
  Hamaglutinin inhibition titer: 12800 titer
  Neutralization titer: 12800 titer
[13]
  Hamaglutinin inhibition titer: 12800 titer
  Neutralization titer: 12800 titer
[14]
  Hamaglutinin inhibition titer: 12800 titer
  Neutralization titer: 12800 titer
[15]
  Hamaglutinin inhibition titer: 12800 titer
  Neutralization titer: 12800 titer
[16]
  Hamaglutinin inhibition titer: 12800 titer
  Neutralization titer: 12800 titer
[17]
  Hamaglutinin inhibition titer: 12800 titer
  Neutralization titer: 12800 titer

B2: 13D4 single chain antibody (scFv)
scFv: QVQLQQSGAELMKPGASVKISCKATGYTFSGHWIEWVKQRPGHGLEWIGEILPGSGNIHYNEKFKGKATFAADTSSNTAYMQLSSLTSEDSAVYYCARLGTTAVERDWYFDVWGQGTTVTESLEDPRVPSSNSGGGGSGGGGSGGGGSDIVMTQSQKFMSASVGDRVSVTCKASQNVGTHLAWYQQKPGQSPKALIYSASYRYSGVPDRFTGSGSGTDFTLTISNVQSGDLADYFCQQYNNFPLTFGAGTKLEIKR
[18]
  hemagglutination inhibition (HI) activity (fold dilution (from 0.18 mg/ml)): 8

B3: 13D4 chimeric antibody SV (antibody, V domains shown)
VH: B1 VH
VL: B1 VL
[19]
  HI titer (hemagglutinin inhibition assay) (n (HI titer = 2^n)): 5
[20]
  HI titer (hemagglutinin inhibition assay) (n (HI titer = 2^n)): 6
[21]
  HI titer (hemagglutinin inhibition assay) (n (HI titer = 2^n)): 6
[22]
  HI titer (hemagglutinin inhibition assay) (n (HI titer = 2^n)): 3
[23]
  HI titer (hemagglutinin inhibition assay) (n (HI titer = 2^n)): 3.5
[24]
  HI titer (hemagglutinin inhibition assay) (n (HI titer = 2^n)): 4
[25]
  HI titer (hemagglutinin inhibition assay) (n (HI titer = 2^n)): 3
[26]
  HI titer (hemagglutinin inhibition assay) (n (HI titer = 2^n)): 4
[27]
  HI titer (hemagglutinin inhibition assay) (n (HI titer = 2^n)): 5
[28]
  HI titer (hemagglutinin inhibition assay) (n (HI titer = 2^n)): 4
[29]
  HI titer (hemagglutinin inhibition assay) (n (HI titer = 2^n)): 7
[30]
  HI titer (hemagglutinin inhibition assay) (n (HI titer = 2^n)): 1
[31]
  HI titer (hemagglutinin inhibition assay) (n (HI titer = 2^n)): 6.5
[32]
  HI titer (hemagglutinin inhibition assay) (n (HI titer = 2^n)): 5
[33]
  HI titer (hemagglutinin inhibition assay) (n (HI titer = 2^n)): > 8
[34]
  HI titer (hemagglutinin inhibition assay) (n (HI titer = 2^n)): 6
[35]
  HI titer (hemagglutinin inhibition assay) (n (HI titer = 2^n)): 5.5
[36]
  HI titer (hemagglutinin inhibition assay) (n (HI titer = 2^n)): 5.5
[37]
  HI titer (hemagglutinin inhibition assay) (n (HI titer = 2^n)): 2
[38]
  HI titer (hemagglutinin inhibition assay) (n (HI titer = 2^n)): < 8
[39]
  HI titer (hemagglutinin inhibition assay) (n (HI titer = 2^n)): 6.5
[40]
  HI titer (hemagglutinin inhibition assay) (n (HI titer = 2^n)): 4
[41]
  HI titer (hemagglutinin inhibition assay) (n (HI titer = 2^n)): 5
[42]
  HI titer (hemagglutinin inhibition assay) (n (HI titer = 2^n)): > 8

B4: 13D4 chimeric antibody LV (antibody, V domains shown)
VH: B1 VH with S118L
VL: B1 VL
[19]
  HI titer (hemagglutinin inhibition assay) (n (HI titer = 2^n)): 5.5
[20]
  HI titer (hemagglutinin inhibition assay) (n (HI titer = 2^n)): 5.5
[21]
  HI titer (hemagglutinin inhibition assay) (n (HI titer = 2^n)): 7
[22]
  HI titer (hemagglutinin inhibition assay) (n (HI titer = 2^n)): 3
[23]
  HI titer (hemagglutinin inhibition assay) (n (HI titer = 2^n)): 4
[24]
  HI titer (hemagglutinin inhibition assay) (n (HI titer = 2^n)): 4
[25]
  HI titer (hemagglutinin inhibition assay) (n (HI titer = 2^n)): 2
[26]
  HI titer (hemagglutinin inhibition assay) (n (HI titer = 2^n)): 3
[27]
  HI titer (hemagglutinin inhibition assay) (n (HI titer = 2^n)): 4
[28]
  HI titer (hemagglutinin inhibition assay) (n (HI titer = 2^n)): 4
[29]
  HI titer (hemagglutinin inhibition assay) (n (HI titer = 2^n)): 7
[31]
  HI titer (hemagglutinin inhibition assay) (n (HI titer = 2^n)): 6
[32]
  HI titer (hemagglutinin inhibition assay) (n (HI titer = 2^n)): 6
[33]
  HI titer (hemagglutinin inhibition assay) (n (HI titer = 2^n)): > 8
[34]
  HI titer (hemagglutinin inhibition assay) (n (HI titer = 2^n)): 4
[35]
  HI titer (hemagglutinin inhibition assay) (n (HI titer = 2^n)): 4
[36]
  HI titer (hemagglutinin inhibition assay) (n (HI titer = 2^n)): 6.5
[37]
  HI titer (hemagglutinin inhibition assay) (n (HI titer = 2^n)): 2
[38]
  HI titer (hemagglutinin inhibition assay) (n (HI titer = 2^n)): > 8
[39]
  HI titer (hemagglutinin inhibition assay) (n (HI titer = 2^n)): 6
[40]
  HI titer (hemagglutinin inhibition assay) (n (HI titer = 2^n)): 3
[41]
  HI titer (hemagglutinin inhibition assay) (n (HI titer = 2^n)): 4
[42]
  HI titer (hemagglutinin inhibition assay) (n (HI titer = 2^n)): > 8

B5: 8G9 chimeric antibody (antibody, V domains shown)
VH: QVQLQQPGVELVRPGASVKLSCKASGYTFTSFWMNWVKQRPDQGLEWIGRIDPYDSETHYNQKFKDKAILTVDKSSSTAYMQLSSLTSEDSAVYYCGRGIATLMVLPDYWGQGTSVTVSS
VL: DILMTQSPSSMSVSLGDTVSITCHASQDISSNMGWLQQKPGKSLKGLIYHGTNLEDGVPSRFSGSGSGPDYSLTISSLESEDFADYYCVQYIQFPWTFGGGTKLEIKR
[18]
  hemagglutination inhibition (HI) activity (fold dilution): 16
